{"source": "patent US20220204643A1", "about": "(published 2022)", "binders": {"B1": {"name": "TBRE1002 (antibody, V domains shown)", "VH": "QVQLVESGGGVVQPGGSLRLSCGASGFAFSSNGMHWVRQAPGKGLEWVAFIHYDGRNKHYTDSVKGRFAISVDDSKTTLYLQMSSLKTEDTAVYYCVKDSRVTGQSSGYIFDSWGQGTLVTVSS", "VL": "ETVMTQSPATLSVSPGDRATLSCRASQNVNFNLAWYQQKPGQAPRLLIYDASTRATGIPARFSGSASGTEFTLTINSLQSEDFAVYYCQQYNNWWTFGQGTKLEIKR", "notes": "VH/VL only"}, "B2": {"name": "TMEL1032 (antibody, V domains shown)", "VH": "QVQLVQSGAEVRKPGASVKVSCKASGYTFTTYYIHWVRQAPGQGLEWMGLINPNGGTTNYAQKFQGRLSMTTDTSTNTVYMELSSLRSEDTAVYYCARKLMSGIVSRGWFDPWGQGTLVTVSS", "VL": "not shown", "notes": "VH/VL tied via antigen in summary, not by name in this stretch"}, "B3": {"name": "TMEL1033 (antibody, V domains shown)", "VH": "PVQLQESGPGLVKPSETLSLTCTVSGGSVSSGSYYWSWIRQPPGKGLEWIGYIYYSGSTNYNPSLKSRVTISVDTSKNQFSLKLSSVTAADTAVYYCARDRGDYVTHWFDPWGQGTLVTVSS", "VL": "not shown", "notes": "as for B2"}, "B4": {"name": "TBLA1013 (antibody, V domains shown)", "VH": "EVQLLESGGGLVQPGGSLTLSCVGSRFTFSSYAMNWVRQSPGRGLEWVASISATTGSTYYTDSVEGRFTISRDNSRDTLYLQMNSLRADDTALYYCVRSFVGAVPAYPNFDFWGPGTLVTVSS", "VL": "PSGLTQPPSASGTPGQRVTMSCSGSSSNIGRNYVYWYQQLPGAAPKLLIYRDNQRPSGVPDRFSGSKSGTSASLAISGLRSEDEADYYCAAWDDNVSGPGFGAGTRLTVLG", "notes": "VH/VL only"}, "B5": {"name": "TMEL1041 (antibody, V domains shown)", "VH": "EVQLLESGGGLVQPGGSLRLSCAASGFTFRIYAMSWVRQAPGKGLEWVSAISYSGNTTYYADSVKGRFTISRDNSKNTLYLQINNLRAEDTAIYYCAIQEKRELQLRRELDNYWGQGTLVTVSS", "VL": "PYELTQPPSVSLSPGQTARITCSGDALPKKYAYWYQQKSGQAPVLVIYEDSKRPSGIPERFSGSSSGTTATLTISGAQVDDEGDYYCYSPDSSGNVWVFGGGTKLTVLG", "notes": "as for B2"}, "B6": {"name": "TOVA1002 (antibody, V domains shown)", "VH": "QVQLVESGGGVVQPGRSLRLSCAASGFTFSNFAMHWVRQAPGKGLEWVVVISSDGSNKNYADSVKGRFTISRDNSKNTLYLQMNSLRAEDTAVYYCARDLGVGSTTYWGQGTLVTVSS", "VL": "SYVLTQPPSVSVAPGQTARITCGGNNIGSKSVHWYQQKPGQAPVLVVYDDSDRPSGIPERFSGSNSGNTATLTISRVEAGDEADYYCQVWDGYSDPLVFGGGTKLTVLG", "notes": "as for B2"}, "B7": {"name": "TMEL1037 (antibody, V domains shown)", "VH": "PLQLQESGPGLVKPSETLSLTCTVSGGSISSSSYYWGWIRQSPGKGLEWMGSIYYSGSTYYNPSLKSRVTISVDTSKNQFSLNLSSVTAADTAVYYCARHDYRNYFDYWGQGTLVTVSS", "VL": "not shown", "notes": "as for B2"}, "B8": {"name": "TMES1002 (antibody, V domains shown)", "VH": "QVQVVESGGGLVKPGGSLRLSCAVSGLDFRDYYVNWIRQAPGKGLEWLSYITSPGGHTSYSDSVKGRFTISRDNAKNSVYLQMDSLTVEDTAVYFCAIKEGYGLSDWGQGTLVTVSS", "VL": "EIVLTQSPVTLSLSPGERATLSCRASQSVSSSYIAWYQQKPGQAPRLLIYGASTRATGIPDRFSGSGSGTDFTLTISRLEPEDCAVFYCQQYGSSHYTFGQGTKLEIKR", "notes": "as for B2"}, "B9": {"name": "TMES1004 (antibody, V domains shown)", "VH": "QVQLVQSGAEVKKPGASVKISCKASGYTFTSHAIHWVRQAPGQTFEWLGWINPVNGVTKYSQTFQDRVTIVRDKSATTTYMDLSGLTFEDTAMYYCARVLDFYGSSVLDYWGQGTLVTVSS", "VL": "QSALTQPASVSGSPGQSITISCTGTSSDIGTYNLVSWYQQRPGKAPKLIIYDVIKRPSGISDRFSGSKSDNMASLTISGLQAEDEAHYYCCSYRSSTAPVVFGGGTKVTVL", "notes": "as for B2"}, "B10": {"name": "TMEL1035 (antibody, V domains shown)", "VH": "QVQLVESGGGVVQPGRSLRLSCAASGFTFSSYAMHWVRQAPGKGLEWVAVISYDGSNKYYADSVKGRFTISRDNSKNTLYLQMNSLRAEDTAVYYCASPIAVAAPFAYWGQGTLVTVSS", "VL": "VSSELTQDPAVSVALGQTVRITCQGDSLRSYYASWYQQKPGQAPVLVIYGKNNRPSGIPDRFSGSSSGNTASLTITGAQAEDEADYYCNSRDSSGNLYVFGTGTKVTVLG", "notes": "as for B2"}, "B11": {"name": "TMEL1040 (antibody, V domains shown)", "VH": "EVQLVQSGAEVKKPGESLKISCKGSGYSFTTYWIAWVRQMPGKGLEWMGIIYPADSDTRYSPSFQGQVTMSADQSINTAYLQWSSLKASDTAMYYCARRGREFDYWGQGTLLTVSS", "VL": "QSALTQPASVSGSPGQSITISCTGTSSDVGSYNLVSWYQQHPGKAPKLMIYEGSKRPSGVSNRFSGSKSGNTASLTISGLQAEDEADYYCCSYAGSSTPWVFGGGTKLTVL", "notes": "as for B2"}}, "experiment_in_all_cases": "protein array", "key": {"[1]": {"biological_target": "T1, microfibril associated protein 3, transcript variant 3 (human, UniProt P55082 19-362)", "T1 construct": "on protein array; also called MFAP3", "T1 sequence (P55082 19-362 limits assumed, change not shown)": "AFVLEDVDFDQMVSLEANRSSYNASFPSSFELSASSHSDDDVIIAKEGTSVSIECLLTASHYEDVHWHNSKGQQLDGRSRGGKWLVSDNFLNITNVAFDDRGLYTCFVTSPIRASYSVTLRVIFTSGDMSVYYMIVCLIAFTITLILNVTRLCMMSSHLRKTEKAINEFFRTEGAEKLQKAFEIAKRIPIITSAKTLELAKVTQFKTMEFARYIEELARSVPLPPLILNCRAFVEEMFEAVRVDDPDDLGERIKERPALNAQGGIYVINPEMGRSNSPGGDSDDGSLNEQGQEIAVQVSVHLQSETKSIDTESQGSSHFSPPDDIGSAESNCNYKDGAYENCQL"}, "[2]": {"biological_target": "T2, proteasome 26S subunit, non-ATPase 4, transcript variant 2 (human, UniProt P55036 1-377)", "T2 construct": "on protein array; also called PSMD4", "T2 sequence (P55036 whole entry, change not shown)": "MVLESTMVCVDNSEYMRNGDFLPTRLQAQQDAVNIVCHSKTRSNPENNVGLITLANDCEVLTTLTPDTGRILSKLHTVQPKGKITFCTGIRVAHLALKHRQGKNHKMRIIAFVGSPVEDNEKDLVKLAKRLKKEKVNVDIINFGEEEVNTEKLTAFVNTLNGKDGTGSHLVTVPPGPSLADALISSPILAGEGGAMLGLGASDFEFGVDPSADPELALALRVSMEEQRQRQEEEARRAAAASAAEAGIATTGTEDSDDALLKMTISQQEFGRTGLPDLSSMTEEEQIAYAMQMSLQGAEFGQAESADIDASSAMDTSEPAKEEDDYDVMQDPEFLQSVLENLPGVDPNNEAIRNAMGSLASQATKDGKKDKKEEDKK"}, "[3]": {"biological_target": "T3, Src like adaptor, transcript variant 1 (human, UniProt Q13239 2-276)", "T3 construct": "on protein array; also called SLA", "T3 sequence": "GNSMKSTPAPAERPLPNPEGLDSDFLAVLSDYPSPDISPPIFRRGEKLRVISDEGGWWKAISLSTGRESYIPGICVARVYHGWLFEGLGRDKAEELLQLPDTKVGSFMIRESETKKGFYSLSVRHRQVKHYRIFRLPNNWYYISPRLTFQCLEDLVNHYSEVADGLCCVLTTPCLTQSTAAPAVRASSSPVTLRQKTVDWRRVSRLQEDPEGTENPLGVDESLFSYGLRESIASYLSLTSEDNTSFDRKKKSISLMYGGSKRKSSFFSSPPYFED"}, "[4]": {"biological_target": "T4, zinc finger protein 431, transcript variant 2 (human, UniProt Q8TF32 1-576)", "T4 construct": "on protein array; also called ZNF431", "T4 sequence (Q8TF32 other isoform, or with tags, fused parts or gaps mutant limits assumed)": "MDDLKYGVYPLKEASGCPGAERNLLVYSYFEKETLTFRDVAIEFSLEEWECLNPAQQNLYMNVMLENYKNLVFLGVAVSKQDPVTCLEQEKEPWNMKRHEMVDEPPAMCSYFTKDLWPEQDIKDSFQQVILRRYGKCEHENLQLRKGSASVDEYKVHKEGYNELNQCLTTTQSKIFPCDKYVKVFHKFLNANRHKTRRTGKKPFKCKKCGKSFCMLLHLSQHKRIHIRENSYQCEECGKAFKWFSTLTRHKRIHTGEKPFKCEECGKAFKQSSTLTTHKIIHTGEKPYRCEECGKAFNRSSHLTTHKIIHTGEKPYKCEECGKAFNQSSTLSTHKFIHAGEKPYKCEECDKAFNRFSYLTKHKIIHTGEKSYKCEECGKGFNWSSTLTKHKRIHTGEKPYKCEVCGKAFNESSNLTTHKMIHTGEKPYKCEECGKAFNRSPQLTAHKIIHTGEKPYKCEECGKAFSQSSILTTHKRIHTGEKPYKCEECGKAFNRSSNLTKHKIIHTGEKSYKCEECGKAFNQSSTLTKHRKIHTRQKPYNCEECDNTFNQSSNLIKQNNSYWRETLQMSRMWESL"}, "[5]": {"biological_target": "T5, Zinc finger protein 699 (human, UniProt Q32M78 1-642)", "T5 construct": "on protein array; also called ZNF699", "T5 sequence (Q32M78 whole entry)": "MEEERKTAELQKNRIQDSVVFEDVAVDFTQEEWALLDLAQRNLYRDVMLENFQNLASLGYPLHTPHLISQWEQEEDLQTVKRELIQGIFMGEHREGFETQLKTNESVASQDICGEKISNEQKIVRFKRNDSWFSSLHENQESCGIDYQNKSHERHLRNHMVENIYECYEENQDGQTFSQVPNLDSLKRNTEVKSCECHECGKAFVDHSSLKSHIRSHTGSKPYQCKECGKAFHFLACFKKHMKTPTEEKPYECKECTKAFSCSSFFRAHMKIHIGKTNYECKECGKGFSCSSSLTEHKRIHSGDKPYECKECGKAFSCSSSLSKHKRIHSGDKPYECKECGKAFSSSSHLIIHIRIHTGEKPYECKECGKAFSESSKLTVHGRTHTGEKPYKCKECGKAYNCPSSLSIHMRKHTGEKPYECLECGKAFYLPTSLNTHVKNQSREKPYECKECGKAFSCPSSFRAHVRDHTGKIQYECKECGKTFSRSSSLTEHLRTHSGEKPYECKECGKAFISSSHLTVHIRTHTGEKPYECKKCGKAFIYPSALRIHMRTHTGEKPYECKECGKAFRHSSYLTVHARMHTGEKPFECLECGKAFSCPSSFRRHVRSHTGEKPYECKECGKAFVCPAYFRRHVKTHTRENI"}, "[6]": {"biological_target": "T6, nudix hydrolase 21 (human, UniProt O43809 2-227)", "T6 construct": "on protein array; also called NUDT21", "T6 sequence (O43809 2-227 limits assumed)": "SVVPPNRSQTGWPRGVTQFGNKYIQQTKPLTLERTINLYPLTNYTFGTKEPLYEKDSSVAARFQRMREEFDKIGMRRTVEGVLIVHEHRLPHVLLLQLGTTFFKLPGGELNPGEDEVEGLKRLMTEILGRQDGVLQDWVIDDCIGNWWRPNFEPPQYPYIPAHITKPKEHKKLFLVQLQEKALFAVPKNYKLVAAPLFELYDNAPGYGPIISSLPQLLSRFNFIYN"}, "[7]": {"biological_target": "T7, 5-hydroxytryptamine receptor 1E (human, UniProt P28566 1-365)", "T7 construct": "on protein array; also called HTR1E", "T7 sequence (P28566 whole entry)": "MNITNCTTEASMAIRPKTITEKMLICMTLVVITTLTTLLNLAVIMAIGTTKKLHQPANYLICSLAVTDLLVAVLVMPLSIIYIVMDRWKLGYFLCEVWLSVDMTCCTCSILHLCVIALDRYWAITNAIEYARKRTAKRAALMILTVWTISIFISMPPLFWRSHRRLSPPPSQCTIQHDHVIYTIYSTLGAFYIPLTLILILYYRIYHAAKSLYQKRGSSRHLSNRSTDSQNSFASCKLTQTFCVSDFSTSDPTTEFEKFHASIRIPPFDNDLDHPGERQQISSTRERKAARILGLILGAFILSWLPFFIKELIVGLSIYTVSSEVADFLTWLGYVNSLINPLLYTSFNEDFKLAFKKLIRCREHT"}, "[8]": {"biological_target": "T8, Dpy-30 histone methyltransferase complex regulatory subunit (human, UniProt Q9C005 1-99)", "T8 construct": "on protein array", "T8 sequence (Q9C005 whole entry, one chain of several)": "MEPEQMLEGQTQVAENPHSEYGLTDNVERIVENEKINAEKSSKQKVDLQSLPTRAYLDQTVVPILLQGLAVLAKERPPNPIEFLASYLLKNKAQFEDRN"}, "[9]": {"biological_target": "T9, rhophilin associated tail protein 1 like, transcript variant 2 (human, UniProt Q96C74 1-230)", "T9 construct": "on protein array; also called ROPN1L", "T9 sequence": "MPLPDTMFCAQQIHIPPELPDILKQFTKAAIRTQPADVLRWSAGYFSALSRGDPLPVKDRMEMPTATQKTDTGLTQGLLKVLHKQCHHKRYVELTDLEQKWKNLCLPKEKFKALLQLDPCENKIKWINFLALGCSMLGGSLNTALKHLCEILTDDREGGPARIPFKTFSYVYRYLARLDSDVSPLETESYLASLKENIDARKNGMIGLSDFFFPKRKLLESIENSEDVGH"}, "[10]": {"biological_target": "T10, interleukin 27 receptor subunit alpha (human, UniProt Q6UWB1 33-636)", "T10 construct": "on protein array; also called IL27RA", "T10 sequence": "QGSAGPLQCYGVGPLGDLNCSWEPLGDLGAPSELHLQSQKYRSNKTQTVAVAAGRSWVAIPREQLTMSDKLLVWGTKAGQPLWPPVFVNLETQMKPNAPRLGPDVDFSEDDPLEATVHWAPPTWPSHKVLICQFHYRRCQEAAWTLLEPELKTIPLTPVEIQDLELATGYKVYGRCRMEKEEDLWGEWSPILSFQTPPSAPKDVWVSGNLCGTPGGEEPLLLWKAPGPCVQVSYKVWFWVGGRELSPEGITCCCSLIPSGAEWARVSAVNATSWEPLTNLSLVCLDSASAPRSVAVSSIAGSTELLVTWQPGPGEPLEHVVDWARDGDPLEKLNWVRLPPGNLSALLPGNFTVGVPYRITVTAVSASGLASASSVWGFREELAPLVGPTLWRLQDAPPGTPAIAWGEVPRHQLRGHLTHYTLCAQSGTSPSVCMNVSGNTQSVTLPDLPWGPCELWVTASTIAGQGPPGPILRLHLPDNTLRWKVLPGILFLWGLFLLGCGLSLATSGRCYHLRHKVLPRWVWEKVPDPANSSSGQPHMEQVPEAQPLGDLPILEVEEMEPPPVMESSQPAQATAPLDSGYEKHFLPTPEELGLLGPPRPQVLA"}, "[11]": {"biological_target": "T11, enolase 2 (human, UniProt P09104 2-434)", "T11 construct": "on protein array; also called ENO2", "T11 sequence (P09104 2-434 limits assumed)": "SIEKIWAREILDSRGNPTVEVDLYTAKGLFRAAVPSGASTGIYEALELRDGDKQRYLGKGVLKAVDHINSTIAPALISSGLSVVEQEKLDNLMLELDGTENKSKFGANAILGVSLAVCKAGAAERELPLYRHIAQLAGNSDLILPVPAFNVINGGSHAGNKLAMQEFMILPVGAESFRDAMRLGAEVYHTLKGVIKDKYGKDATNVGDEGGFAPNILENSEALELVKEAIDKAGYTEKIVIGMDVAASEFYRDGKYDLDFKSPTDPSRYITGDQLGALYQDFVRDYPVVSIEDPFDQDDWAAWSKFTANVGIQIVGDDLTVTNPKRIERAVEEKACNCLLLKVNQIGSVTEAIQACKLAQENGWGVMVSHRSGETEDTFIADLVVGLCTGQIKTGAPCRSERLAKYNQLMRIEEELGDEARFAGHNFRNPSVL"}, "[12]": {"biological_target": "T12, BTB domain containing 8 (human, UniProt Q5XKL5 1-374, limits assumed)", "T12 construct": "on protein array; also called BTBD8", "T12 sequence (Q5XKL5 other isoform, or with tags, fused parts or gaps limits assumed)": "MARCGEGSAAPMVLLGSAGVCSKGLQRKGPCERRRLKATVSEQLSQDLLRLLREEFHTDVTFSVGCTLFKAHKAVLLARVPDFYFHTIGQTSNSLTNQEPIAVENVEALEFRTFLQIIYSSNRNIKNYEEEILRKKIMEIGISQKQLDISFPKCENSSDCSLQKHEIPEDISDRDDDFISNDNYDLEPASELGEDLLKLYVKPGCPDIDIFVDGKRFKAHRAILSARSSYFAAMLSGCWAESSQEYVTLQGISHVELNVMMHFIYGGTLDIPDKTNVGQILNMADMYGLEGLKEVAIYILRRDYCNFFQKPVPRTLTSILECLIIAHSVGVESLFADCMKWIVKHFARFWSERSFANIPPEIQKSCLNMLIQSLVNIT"}, "[13]": {"biological_target": "T13, Jupiter microtubule associated homolog 2 (human, UniProt Q9H910 1-190)", "T13 construct": "on protein array; also called HN1L", "T13 sequence": "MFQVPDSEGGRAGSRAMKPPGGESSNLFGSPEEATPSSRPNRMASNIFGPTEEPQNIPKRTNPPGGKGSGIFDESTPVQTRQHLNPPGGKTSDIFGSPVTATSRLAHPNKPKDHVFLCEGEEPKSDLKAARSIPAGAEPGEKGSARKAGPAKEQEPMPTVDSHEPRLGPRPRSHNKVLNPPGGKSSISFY"}, "[14]": {"biological_target": "T14, microtubule associated protein RP/EB family member 2, transcript variant 1 (human, UniProt Q15555 1-327)", "T14 construct": "on protein array; also called MAPRE2", "T14 sequence (Q15555 whole entry, change not shown)": "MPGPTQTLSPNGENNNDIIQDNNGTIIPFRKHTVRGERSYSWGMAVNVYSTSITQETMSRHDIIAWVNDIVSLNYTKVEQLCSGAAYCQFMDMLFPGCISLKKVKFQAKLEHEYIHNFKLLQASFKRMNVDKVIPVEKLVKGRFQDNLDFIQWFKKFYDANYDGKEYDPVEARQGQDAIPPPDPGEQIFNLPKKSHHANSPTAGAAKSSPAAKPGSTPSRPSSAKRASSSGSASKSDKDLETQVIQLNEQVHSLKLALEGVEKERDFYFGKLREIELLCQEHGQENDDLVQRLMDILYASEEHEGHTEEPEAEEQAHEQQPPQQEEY"}, "[15]": {"biological_target": "T15, PAGE family member 2 (human, UniProt Q7Z2X7 1-111)", "T15 construct": "on protein array; also called PAGE2", "T15 sequence": "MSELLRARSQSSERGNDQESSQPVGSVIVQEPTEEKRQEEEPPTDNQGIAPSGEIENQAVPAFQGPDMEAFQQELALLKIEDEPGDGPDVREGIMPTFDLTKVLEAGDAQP"}, "[16]": {"biological_target": "T16, keratin associated protein 12-3 (human, UniProt P60328 1-96)", "T16 construct": "on protein array; also called KRTAP12-3", "T16 sequence": "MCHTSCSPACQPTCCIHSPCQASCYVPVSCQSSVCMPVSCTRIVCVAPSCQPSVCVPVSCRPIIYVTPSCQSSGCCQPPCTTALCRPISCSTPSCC"}, "[17]": {"biological_target": "T17, serpin family B member 6, transcript variant 2 (human, UniProt P35237 1-376)", "T17 construct": "on protein array; also called SERPINB6", "T17 sequence": "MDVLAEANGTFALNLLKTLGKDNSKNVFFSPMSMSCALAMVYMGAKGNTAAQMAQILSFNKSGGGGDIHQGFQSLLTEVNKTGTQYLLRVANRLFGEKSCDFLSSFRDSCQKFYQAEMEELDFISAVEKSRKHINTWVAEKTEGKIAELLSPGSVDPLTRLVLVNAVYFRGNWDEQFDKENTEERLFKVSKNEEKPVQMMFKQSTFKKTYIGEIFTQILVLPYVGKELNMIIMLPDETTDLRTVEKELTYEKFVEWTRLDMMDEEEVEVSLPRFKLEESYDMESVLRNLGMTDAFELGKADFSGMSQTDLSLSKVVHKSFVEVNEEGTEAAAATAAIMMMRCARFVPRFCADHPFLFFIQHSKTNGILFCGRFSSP"}}, "data": [{"binder": "B1", "values": [{"measurement": "binding result", "setting": "[1]", "result": "binds"}]}, {"binder": "B2", "values": [{"measurement": "binding result", "setting": "[2]", "result": "binds"}, {"measurement": "binding result", "setting": "[3]", "result": "binds"}]}, {"binder": "B3", "values": [{"measurement": "binding result", "setting": "[4]", "result": "binds"}, {"measurement": "binding result", "setting": "[5]", "result": "binds"}, {"measurement": "binding result", "setting": "[6]", "result": "binds"}]}, {"binder": "B4", "values": [{"measurement": "binding result", "setting": "[7]", "result": "binds"}]}, {"binder": "B5", "values": [{"measurement": "binding result", "setting": "[8]", "result": "binds"}, {"measurement": "binding result", "setting": "[9]", "result": "binds"}]}, {"binder": "B6", "values": [{"measurement": "binding result", "setting": "[10]", "result": "binds"}]}, {"binder": "B7", "values": [{"measurement": "binding result", "setting": "[11]", "result": "binds"}]}, {"binder": "B8", "values": [{"measurement": "binding result", "setting": "[12]", "result": "binds"}, {"measurement": "binding result", "setting": "[13]", "result": "binds"}]}, {"binder": "B9", "values": [{"measurement": "binding result", "setting": "[14]", "result": "binds"}]}, {"binder": "B10", "values": [{"measurement": "binding result", "setting": "[15]", "result": "binds"}, {"measurement": "binding result", "setting": "[16]", "result": "binds"}]}, {"binder": "B11", "values": [{"measurement": "binding result", "setting": "[17]", "result": "binds"}]}]}
